Reference: the supplement of paper PMC9732359
± gives the uncertainty stated by the source.

Assay: protein stability index of a GFP-peptide fusion (yeast GPS) (PSI 1-4); higher = more stable; sorted into four equal gates, so the index is relative within each strain
Method in brief: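 Tiled 17-residue yeast protein peptides were fused downstream of GFP in a plasmid that also expresses Cherry, and the pooled library was carried in yeast. Mid-log cultures in leucine-free medium were sorted into four equal gates by GFP/Cherry fluorescence ratio, and plasmids from each gate were PCR-amplified and Illumina-sequenced, with reads assigned to strains by barcodes. The protein stability index for each peptide was each gate's read frequency times its gate number, summed.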

| Sequence | protein stability index (doa10∆) | protein stability index (pdr5∆) | protein stability index (san1∆) | protein stability index (ubr1∆) |
| --- | --- | --- | --- | --- |
| ATAIGKGSVAAKTFLEK [PRE8] | 2.13 ± 0.2 | 1.28 ± 0.17 |  |  |
| YIQRRLVKALEDIMVHY [RPO21] | 1.77 ± 0.049 | 2.11 ± 0.051 | 1.4 ± 0.075 | 2.05 ± 0.055 |
| QSYFSQLKFEGFALNSD [BRR2] | 1.35 ± 0.05 | 1.26 ± 0.045 | 1.17 ± 0.094 | 1.43 ± 0.04 |
| IIAVKGSGSRLNRLPAA [RPL23A] | 1.42 ± 0.051 | 1.17 ± 0.049 | 1.23 ± 0.099 | 1.42 ± 0.049 |
| LDQLLVLEKKTRQASDL [RPN5] | 3.19 ± 0.12 | 2.95 ± 0.1 | 3.1 ± 0.07 | 2.71 ± 0.097 |
| TKTVKRASKALIERYYP [RPS17A] |  | 2.57 ± 0.21 |  |  |
| EDNAGVIANPKGEMKGS [RPL23A] | 1.82 ± 0.18 | 1.92 ± 0.056 | 2.28 ± 0.13 | 1.85 ± 0.059 |
| RSMVRKWQTLIEANVTV [RPS1A] | 1.65 ± 0.053 | 1.62 ± 0.044 | 1.67 ± 0.079 | 2.24 ± 0.041 |
| NFLVFQGDVEQIAAQSP [SMC1] | 2.49 ± 0.1 | 2.51 ± 0.092 | 2.68 ± 0.14 | 2.61 ± 0.094 |
| EKDAKINKLMEKDFQVN [SIR4] | 3.22 ± 0.067 | 3.44 ± 0.07 | 3.3 ± 0.07 | 3.47 ± 0.055 |
| GEKKVGSNGELFGGRHY [SWP82] | 3.13 ± 0.2 | 3.26 ± 0.13 | 3.73 ± 0.12 |  |
| NCNIKDFKPPYIYSHVN [SWP82] | 2.73 ± 0.086 | 2.77 ± 0.086 | 2.45 ± 0.11 | 2.91 ± 0.057 |
| NKRWKVDIGGKQHAVLM [RRP4] | 2.87 ± 0.064 | 3.25 ± 0.067 | 3.18 ± 0.05 | 3.2 ± 0.037 |
| DLEHKEDCVEEFFHLQH [QCR6] | 2.77 ± 0.1 | 2.75 ± 0.11 | 2.69 ± 0.14 | 3.37 ± 0.1 |
| KEKEKEREEAEKKRAEQ [MED2] |  |  | 2.75 ± 0.28 |  |
| YGDGNGKGDNDNGLGPL [SWI3] | 3.46 ± 0.15 | 3.13 ± 0.3 | 3.31 ± 0.073 | 3 ± 0.1 |
| VLVYDDKLEKVTHDCYR [RPC34] | 2.57 ± 0.1 | 3.18 ± 0.053 | 2.94 ± 0.069 | 2.96 ± 0.062 |
| TEQIKMRILSNDITNLQ [SRB8] | 2.33 ± 0.042 | 2.31 ± 0.037 | 2.15 ± 0.043 | 2.16 ± 0.029 |
| MNHDPFSWGRPADSTYG [PRE4] | 3.05 ± 0.086 | 3.28 ± 0.087 | 3.15 ± 0.057 | 3.22 ± 0.052 |
| HDAPRGLFPFESYKPSV [SWI3] | 3.31 ± 0.091 | 3.08 ± 0.11 | 3.15 ± 0.11 | 3.1 ± 0.079 |
| LPQSEWKAPSSIVLDSE [DIS3] | 3 ± 0.062 | 3.34 ± 0.069 | 3.14 ± 0.052 | 3.15 ± 0.05 |
| MIQEVIVEEDLEPFEAS [FAS2] | 3.5 ± 0.18 | 3.16 ± 0.11 | 3.53 ± 0.063 | 3.47 ± 0.099 |

| Sequence | protein stability index (doa10∆) | protein stability index (pdr5∆) | protein stability index (san1∆) | protein stability index (ubr1∆) |
| --- | --- | --- | --- | --- |
| RDKVCKQINEARDEILP [PGD1] | 1.77 ± 0.091 | 1.6 ± 0.14 | 1.5 ± 0.16 |  |
| LGGDSDEANIEIDPLTG [BRN1] | 3.05 ± 0.18 | 3.48 ± 0.27 | 2.92 ± 0.18 |  |
| ENITNKVTEKVLTQLTA [CSI1] | 2.62 ± 0.051 | 2.22 ± 0.037 | 2.4 ± 0.041 | 2.69 ± 0.041 |
| TKTEALLSDVVSTSSGA [YJL041W/NSP1] | 2.73 ± 0.13 | 3.1 ± 0.2 | 2.75 ± 0.15 |  |
| KLDLFKYFTELSHYIRQ [MED1] | 1.52 ± 0.084 | 1.44 ± 0.14 | 1.24 ± 0.17 | 1.33 ± 0.079 |
| NDDIEWMLSICVEWRLP [YJR042W/NUP85] | 1.64 ± 0.069 | 1.53 ± 0.036 | 1.83 ± 0.11 | 1.9 ± 0.058 |
| NIPFWKHVGFELLSMGN [SRP72] | 1.82 ± 0.1 | 1.58 ± 0.085 | 2.01 ± 0.16 | 1.27 ± 0.079 |
| GLNAKQLYKARMSIKLL [POP1] | 2.13 ± 0.082 | 1.73 ± 0.08 | 2.41 ± 0.06 | 2.37 ± 0.029 |
| CYEKVLESINEGNQIIV [BRR2] | 3.09 ± 0.11 | 2.59 ± 0.11 | 2.05 ± 0.093 | 2.34 ± 0.1 |
| DFPHLTPKLQTQLSYLI [YCS4] | 2.82 ± 0.043 | 2.88 ± 0.045 | 2.79 ± 0.044 | 2.67 ± 0.038 |
| DDTKNQDSMSKGTGEES [YGR119C/NUP57] | 3.16 ± 0.077 | 3.14 ± 0.16 | 3.21 ± 0.082 | 3.42 ± 0.057 |
| KTGTKPAAVFAETLKHD [RPL4B] | 2.17 ± 0.078 | 1.95 ± 0.18 | 1.63 ± 0.16 | 2 ± 0.15 |
| GSSALADNKEDVKKPFS [YLR335W/NUP2] | 3.48 ± 0.099 | 3.16 ± 0.067 | 3.06 ± 0.06 | 3.21 ± 0.062 |
| TNTFGSNSAGTSLFGSS [YJL041W/NSP1] | 3.1 ± 0.083 | 2.84 ± 0.09 | 3.16 ± 0.082 | 3.15 ± 0.058 |
| EVSMNSIFAMGLCGAGT [RPN1] | 1.68 ± 0.047 | 1.61 ± 0.058 | 1.49 ± 0.091 | 1.23 ± 0.052 |
| KETIARVTGGMKVKADR [RPS14A] | 3.29 ± 0.11 | 3.13 ± 0.12 | 3.31 ± 0.062 | 3.27 ± 0.073 |
| EEIVVVASADYESQTFS [PRP8] | 3.14 ± 0.069 | 3.5 ± 0.095 | 3.24 ± 0.054 | 3.3 ± 0.057 |
| QKNYADPEKDSINATAL [SIN4] | 1.9 ± 0.042 | 1.71 ± 0.047 | 1.61 ± 0.087 | 1.59 ± 0.032 |
| VLKCLKSLESQRYVKSV [RPC34] | 1.72 ± 0.059 | 1.94 ± 0.054 | 1.99 ± 0.1 | 1.91 ± 0.07 |
| VWFSHPRRYGKGSRQCR [RPS29A] | 3.14 ± 0.16 | 3.24 ± 0.1 | 3.39 ± 0.067 | 3.31 ± 0.11 |
| TSHYQNYHPNASITPYK [RPN4] | 2.84 ± 0.081 | 3.11 ± 0.074 | 2.94 ± 0.055 | 2.89 ± 0.063 |
